Measurements: patent US20180215833A1 (published 2018)

Assays:
[1] = biological target: human c-Met on cells (MKN-45, A549, HPAF, BxPC3, NCI-H441) (human, UniProt P08581 25-1390); assay: cell-based or functional assay
[2] = biological target: LS4 (aa1-348) (Llama glama; human) (UniProt P08581); assay: ELISA, mAb immobilised, c-Met chimera titrated (EC50 of the chimera)
[3] = biological target: Ll11 (aa634-909) (human; Llama glama); assay: as above
[4] = biological target: Ll8 (aa540-909) (human; Llama glama); assay: as above
[5] = biological target: LS2 (aa1-199) (Llama glama; human) (UniProt P08581); assay: as above
[6] = biological target: LS5 (aa1-448) (Llama glama; human) (UniProt P08581); assay: as above
[7] = biological target: Ll9 (aa572-909) (human; Llama glama); assay: as above
[8] = biological target: Ll10 (aa608-909) (human; Llama glama); assay: as above
[9] = biological target: LS3 (aa1-287) (Llama glama; human) (UniProt P08581); assay: as above
[10] = biological target: T1, llama c-Met ECD (aa 25-932), His tag (Llama glama); assay: ELISA, 200 ng immobilised c-Met protein
T1 construct: also called Llama glama c-Met
T1 chain: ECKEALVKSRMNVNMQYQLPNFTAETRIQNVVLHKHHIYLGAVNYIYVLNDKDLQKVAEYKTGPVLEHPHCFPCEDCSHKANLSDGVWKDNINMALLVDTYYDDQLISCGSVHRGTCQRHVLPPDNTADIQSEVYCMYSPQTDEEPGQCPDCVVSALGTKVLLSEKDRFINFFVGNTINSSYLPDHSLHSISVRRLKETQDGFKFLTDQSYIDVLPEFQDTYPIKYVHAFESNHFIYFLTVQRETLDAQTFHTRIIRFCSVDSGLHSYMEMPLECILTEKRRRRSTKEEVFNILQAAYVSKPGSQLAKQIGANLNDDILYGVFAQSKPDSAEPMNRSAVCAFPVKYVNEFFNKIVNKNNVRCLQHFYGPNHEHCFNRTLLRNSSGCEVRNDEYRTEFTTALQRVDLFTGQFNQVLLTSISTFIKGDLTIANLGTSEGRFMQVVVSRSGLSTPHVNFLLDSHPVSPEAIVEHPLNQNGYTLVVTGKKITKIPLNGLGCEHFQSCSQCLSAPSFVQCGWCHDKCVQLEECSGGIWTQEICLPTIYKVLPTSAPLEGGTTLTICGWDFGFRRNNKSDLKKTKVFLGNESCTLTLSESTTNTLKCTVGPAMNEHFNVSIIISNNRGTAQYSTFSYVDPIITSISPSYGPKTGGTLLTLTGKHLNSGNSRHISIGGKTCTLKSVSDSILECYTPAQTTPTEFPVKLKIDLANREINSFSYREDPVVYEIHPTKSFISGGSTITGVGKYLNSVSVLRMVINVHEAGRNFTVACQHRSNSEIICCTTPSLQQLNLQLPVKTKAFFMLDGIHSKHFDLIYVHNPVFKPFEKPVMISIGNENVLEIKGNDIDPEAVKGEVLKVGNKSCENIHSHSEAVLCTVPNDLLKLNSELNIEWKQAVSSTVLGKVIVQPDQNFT

Sequence of human c-Met on cells (MKN-45, A549, HPAF, BxPC3, NCI-H441) (P08581 25-1390): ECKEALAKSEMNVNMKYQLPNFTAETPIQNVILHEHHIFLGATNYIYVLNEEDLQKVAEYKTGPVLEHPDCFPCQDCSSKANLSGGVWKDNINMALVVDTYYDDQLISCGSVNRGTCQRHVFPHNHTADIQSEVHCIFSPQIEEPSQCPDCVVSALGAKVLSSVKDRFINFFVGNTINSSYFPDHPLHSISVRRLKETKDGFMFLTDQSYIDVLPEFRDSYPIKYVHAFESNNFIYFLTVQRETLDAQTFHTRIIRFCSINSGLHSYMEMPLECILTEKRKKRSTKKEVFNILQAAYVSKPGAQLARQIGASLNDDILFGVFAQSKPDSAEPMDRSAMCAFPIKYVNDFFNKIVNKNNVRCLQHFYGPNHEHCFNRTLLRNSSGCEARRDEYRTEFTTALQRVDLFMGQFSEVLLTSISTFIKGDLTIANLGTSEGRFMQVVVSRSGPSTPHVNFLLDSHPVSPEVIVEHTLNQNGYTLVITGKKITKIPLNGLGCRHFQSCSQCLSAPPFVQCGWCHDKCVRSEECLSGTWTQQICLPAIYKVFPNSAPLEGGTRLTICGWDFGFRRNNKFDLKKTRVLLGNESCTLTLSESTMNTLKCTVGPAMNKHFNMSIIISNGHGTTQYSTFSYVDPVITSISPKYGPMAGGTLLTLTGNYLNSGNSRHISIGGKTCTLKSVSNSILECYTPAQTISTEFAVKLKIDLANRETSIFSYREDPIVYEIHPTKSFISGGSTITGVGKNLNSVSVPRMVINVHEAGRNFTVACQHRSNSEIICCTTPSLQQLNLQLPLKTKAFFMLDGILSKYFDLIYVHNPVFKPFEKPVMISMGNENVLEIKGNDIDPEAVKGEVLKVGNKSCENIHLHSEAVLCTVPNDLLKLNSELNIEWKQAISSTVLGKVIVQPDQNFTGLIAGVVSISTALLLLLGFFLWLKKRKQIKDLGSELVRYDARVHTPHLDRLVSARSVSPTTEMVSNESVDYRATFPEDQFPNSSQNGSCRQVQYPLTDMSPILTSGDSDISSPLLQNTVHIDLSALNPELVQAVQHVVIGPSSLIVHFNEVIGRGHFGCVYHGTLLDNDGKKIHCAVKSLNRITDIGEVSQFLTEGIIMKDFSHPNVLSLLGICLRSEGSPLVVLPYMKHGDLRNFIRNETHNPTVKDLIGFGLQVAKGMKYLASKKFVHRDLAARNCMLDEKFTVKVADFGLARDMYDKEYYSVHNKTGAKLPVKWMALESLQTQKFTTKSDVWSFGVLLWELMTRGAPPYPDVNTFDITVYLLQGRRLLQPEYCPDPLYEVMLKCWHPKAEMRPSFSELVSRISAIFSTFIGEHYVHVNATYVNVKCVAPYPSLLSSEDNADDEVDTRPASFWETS

B1: 38H10 (antibody, V domains shown)
VH: EVQLVQPGVELRNPGASVKVSCKASGYIFTMNSIDWVRQAPGQGLEWMGRIDPEDGGTKYAQKFQGRVTFTADTSTSTAYVELNSLRSEDTAVYYCARVDDYYLGYDYWGQGTQVTVSS
VL: EIVMTQSPSSVTASAGEKVTINCKSSQSVLWRSNQKNYLAWYQQRLGQSPRLLISWASIRESGVPDRFSGSGSTTDFTLTISSFQPEDAAVYYCQQGYSFPYTFGSGTRLEIK
For B1, the “antibody-induced proliferation of BxPC3 cells, percentage of the proliferation obtained with 75 ng/ml HGF” value [1] was less than 20%.

B2: 48A2 (antibody, V domains shown)
VH: B1 VH
VL: DIVMTQTPTSVTASAGDKVTINCKSSQSVLFSSNQKNYLAWYQQRLGQSPRLLIYWASIRESGVPDRFSGSGSATDFTLTISNFQPEDAAVYYCQQGYSFPYSFGSGTRLEIR
With B2 the “ADCC, specific lysis of MKN-45 cells, EC50” value (“ADCC, specific lysis” below) [1] was 0.0043 µg/mL, the EC50 [2] was 0.07 µg/mL and the EC50 [3] was 0.042 µg/mL. The EC50 [4] was greater than 0.04 µg/mL, the EC50 [5] was 0.034 µg/mL and the EC50 [6] was 0.05 µg/mL. For the same binder, the EC50 [7] was greater than 0.04 µg/mL, the EC50 [8] was greater than 0.04 µg/mL and the EC50 [9] was 0.05 µg/mL.

B3: 40B8 (antibody, V domains shown)
VH: EVQLVQPGAELRNPGASVKVSCKASGYTFTNYVIDWVRQAPGQGLEWMGRIDPENGGTRYAQKFQGRVTFTADTSTSTAYVELSNLRSEDTAVYYCARLEDYELAYDYWGQGTQVTVSS
VL: DIVMTQTPSSVTASAGEKVTINCKSSQSVLLSSNQKNYLAWYQQRLGQSPRLLIYWASTRESGVPDRFSGSGSTTDFTLTISSFQPEDAAVYYCQQGVSFPLTFGQGTKVELK
B3 was tested, and the “ADCC, specific lysis” value [1] was 0.0046 µg/mL and the “antibody-induced proliferation of BxPC3 cells, percentage of the proliferation obtained with 75 ng/ml HGF” value [1] was less than 20%.

B4: chimeric 224G11 (antibody, human IgG1, V domains shown)
VH: EVQLQQSGPELVKPGASVKISCKTSGYIFTAYTMHWVRQSLGESLDWIGGIKPNNGLANYNQKFKGKATLTVDKSSSTAYMDLRSLTSEDSAVYYCARSEITTEFDYWGQGTALTVSS
VL: DIVLTQSPASLAVSLGQRATISCRASESVDSYANSFMHWYQQKPGQPPKLLIYRASNLESGIPARFSGSGSRTDFTLTINPVEADDVATYYCQQSKEDPLTFGSGTKLEMK
In the case of B4, the “ADCC, specific lysis” value [1] is reported as 0.0028 µg/mL.

B5: Potelligent 36C4 (antibody, V domains shown)
VH: QVQLVESGPGLVKPSQTLSLTCAVSGGSITTNYYYWSWIRQSPGKGLEWMGVIAYDGSTDYSPSLKSRTSISRDTSKNQFSLQLSSVTPEDTAVYYCARDVRVIATGWATANALDAWGQGTLVTVSS
VL: QSVLTQPPSVSGSPGKTVTISCAGTSSDVGYGNYVSWYQQLPGTAPKLLIFAVSYRASGIPDRFSGSKSGNTAFLTISGLQSEDEADYYCASYRSSNNAAVFGGGTHLTVL
modifications: defucosylated (produced in Potelligent CHO cells)
B5 was tested, and the “ADCC, 51Cr release assay on NCI-H441 cells, EC50” value [1] was 0.04 µg/mL and the “ADCC, 51Cr release, lysis of NCI-H441 cells, IC50” value [1] was 0.00013 µg/mL.

B6: 36C4E (antibody, V domains shown)
VH: B5 VH
VL: B5 VL
For B6, the “ADCC, 51Cr release assay on NCI-H441 cells, EC50” value [1] was 0.26 µg/mL.

B7: 13E6 (antibody, V domains shown)
VH: QVQLQESGGDLVQPGGSLRLSCAASGFTFDDYVMNWVRQAPGKGLEWISAINWNGGSTYYAESMKGRFTISRDNAKNTLYLQMYSLQSDDTAVYYCVKDTVVSGNGYWGQGTQVTVSS
VL: QSVLTQPPSVSGTLGKTVTISCAGTSSDIGDYNYVSWYQQLPGTAPKLLIYDVNKRASGIPDRFSGSKSGNTASLSISGLQSEDEADYYCASYRSRNDYAFGGGTKLTVL
notes: also called mAb 13E6
B7: no binding [10].
